Measured values from article doi:10.1101/780452.

Target: BSA-Man (glycoprotein bearing 12 glycosylated sites) (bovine (from the name BSA)), P02769
Assay: SPR
Conditions: remark: other sources report otherwise

Chain of BSA-Man (glycoprotein bearing 12 glycosylated sites) (bovine (from the name BSA)), P02769 (P02769 25-607): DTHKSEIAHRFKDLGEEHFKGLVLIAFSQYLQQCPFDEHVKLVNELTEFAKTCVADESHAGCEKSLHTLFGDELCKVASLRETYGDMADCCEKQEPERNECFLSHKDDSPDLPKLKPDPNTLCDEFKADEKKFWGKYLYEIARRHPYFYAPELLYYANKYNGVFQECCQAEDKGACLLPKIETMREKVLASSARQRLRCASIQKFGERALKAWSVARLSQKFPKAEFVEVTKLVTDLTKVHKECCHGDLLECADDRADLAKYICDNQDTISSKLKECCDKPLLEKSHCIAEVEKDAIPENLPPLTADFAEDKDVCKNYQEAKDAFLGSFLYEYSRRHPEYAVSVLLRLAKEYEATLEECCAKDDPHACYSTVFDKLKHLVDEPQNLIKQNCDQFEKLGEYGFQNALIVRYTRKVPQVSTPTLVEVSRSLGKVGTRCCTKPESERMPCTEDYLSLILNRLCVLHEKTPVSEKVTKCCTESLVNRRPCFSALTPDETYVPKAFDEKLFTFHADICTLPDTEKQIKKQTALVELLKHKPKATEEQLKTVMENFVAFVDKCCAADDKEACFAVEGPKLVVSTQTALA

Kd: 3.74 µM
B1: DC-SIGN ECD (construct without StreptagII), Q9NNX6 59-404 (domain or fragment)
chain: QVSKVPSSISQEQSRQDAIYQNLTQLKAAVGELSEKSKLQEIYQELTQLKAAVGELPEKSKLQEIYQELTRLKAAVGELPEKSKLQEIYQELTWLKAAVGELPEKSKMQEIYQELTRLKAAVGELPEKSKQQEIYQELTRLKAAVGELPEKSKQQEIYQELTRLKAAVGELPEKSKQQEIYQELTQLKAAVERLCHPCPWEWTFFQGNCYFMSNSQRNWHDSITACKEVGAQLVVIKSAEEQNFLQLQSSRSNRFTWMGLSDLNQEGTWQWVDGSPLLPSFKQYWNRGEPNNVGEEDCAEFSGNGWNDDKCNLAKFWICKKSAASCSRDEEQFLSPAPATPNPPPA
modifications: here or on the partner: 12 glycosylated sites (mannose glycans, up to 12 glycans displayed)
